Test results as given in patent US20210047432A1 (DIACCURATE, published 2021).
Numbering of substitutions follows the chain as printed. Names may count otherwise.

B1: humanized antibody #2B1 (mutations L234A & L235E) (antibody, human IgG1, kappa)
heavy: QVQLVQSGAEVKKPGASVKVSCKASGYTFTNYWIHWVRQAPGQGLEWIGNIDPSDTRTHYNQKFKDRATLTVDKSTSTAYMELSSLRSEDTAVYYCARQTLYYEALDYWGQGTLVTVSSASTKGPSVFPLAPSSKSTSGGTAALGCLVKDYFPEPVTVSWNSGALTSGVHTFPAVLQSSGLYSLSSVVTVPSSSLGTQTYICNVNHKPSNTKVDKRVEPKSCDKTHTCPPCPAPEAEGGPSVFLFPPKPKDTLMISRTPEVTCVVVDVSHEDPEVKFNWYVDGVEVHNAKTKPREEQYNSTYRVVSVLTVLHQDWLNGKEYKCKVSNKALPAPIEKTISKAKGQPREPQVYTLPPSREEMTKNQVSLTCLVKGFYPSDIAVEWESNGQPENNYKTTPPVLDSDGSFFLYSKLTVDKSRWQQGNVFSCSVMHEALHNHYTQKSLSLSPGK
light: EIVMTQSPATLSVSPGERATLSCKASQDVSTAVAWYQQKPGQAPRLLIYWASTRHTGIPARFSGSRSGTEYTLTISSLQSEDFAVYYCQQDYSTPPTFGGGTKVEIKRTVAAPSVFIFPPSDEQLKSGTASVVCLLNNFYPREAKVQWKVDNALQSGNSQESVTEQDSKDSTYSLSSTLTLSKADYEKHKVYACEVTHQGLSSPVTKSFNRGEC
notes: #2B with L234A and L235E in the heavy chain constant region; also called Ab #2B1; copies: 2 + 2
B2: humanized antibody #2B (antibody, human IgG1, kappa)
heavy: not shown
light: B1 light
notes: Humanized 14G9, IGHV1-46*01 version B heavy and IGKV3-15*01 version B light; also called Ab #2B; mAb #2B; copies: 2 + 2
B3: humanized antibody #2B2 (mutations L234A, L235E and P331S) (antibody, human IgG1, kappa)
heavy: QVQLVQSGAEVKKPGASVKVSCKASGYTFTNYWIHWVRQAPGQGLEWIGNIDPSDTRTHYNQKFKDRATLTVDKSTSTAYMELSSLRSEDTAVYYCARQTLYYEALDYWGQGTLVTVSSASTKGPSVFPLAPSSKSTSGGTAALGCLVKDYFPEPVTVSWNSGALTSGVHTFPAVLQSSGLYSLSSVVTVPSSSLGTQTYICNVNHKPSNTKVDKRVEPKSCDKTHTCPPCPAPEAEGGPSVFLFPPKPKDTLMISRTPEVTCVVVDVSHEDPEVKFNWYVDGVEVHNAKTKPREEQYNSTYRVVSVLTVLHQDWLNGKEYKCKVSNKALPASIEKTISKAKGQPREPQVYTLPPSREEMTKNQVSLTCLVKGFYPSDIAVEWESNGQPENNYKTTPPVLDSDGSFFLYSKLTVDKSRWQQGNVFSCSVMHEALHNHYTQKSLSLSPGK
light: B1 light
notes: #2B with L234A, L235E and P331S in the heavy chain constant region; also called Ab #2B2; #2B2 humanized mAb; copies: 2 + 2

Legend:
[1] = molecular target: T1, recombinant human sPLA2-GIB (mature secreted group IB pancreatic phospholipase A2) (human, UniProt P04054 23-148); assay: SPR (BIAcore 2000), antibody captured, antigen in solution
T1 construct: also called sPLA2-IB; PLA2-GIB mature form
Experimental: (§1) The affinity constants (KD) of the pro-sPLA2-GIB and sPLA2-GIB binding to the #2B, #2B1 and #2B2 antibodies were determined by surface kinetics on a real-time biosensor surface plasmon resonance assay (BIAcore™). More specifically, the affinity of the antibodies for human pro-sPLA2-IB and sPLA2-IB was measured using a BIAcore® 2000. The antibody was captured on an anti-mouse IgG surface and exposed to various concentrations of recombinant pro-sPLA2-IB and sPLA2-IB protein. Kinetic analysis using BIAevaluation™ software was performed to obtain the association and dissociation rate constants.
as §1, with “to” for “to the #2B,”, “#2B2” for “#2B2 antibodies”, “(BIAcore™).” for “(BIAcore™). More specifically, the affinity of the antibodies for human pro-sPLA2-IB and sPLA2-IB was measured using a BIAcore® 2000.”, “constants (Table 7).” for “constants.”

[2] = molecular target: T2, recombinant human pro-sPLA2-GIB (human, UniProt P04054 16-148); assay: as above
T2 construct: also called pro-sPLA2-IB; proPLA2-GIB
Experimental: as §1
as §1, with “to” for “to the #2B,”, “#2B2” for “#2B2 antibodies”, “(BIAcore™).” for “(BIAcore™). More specifically, the affinity of the antibodies for human pro-sPLA2-IB and sPLA2-IB was measured using a BIAcore® 2000.”, “constants (Table 7).” for “constants.”

human FcγRIIIA(F176) = molecular target: T3, human FcγRIIIA(F176) (human, UniProt P08637 17-254); assay: flow cytometry, monomeric IgG on CHO cells expressing the receptor
T3 construct: whole, on cells
Experimental: (§2) Monomeric IgG binding was tested by incubating the #2B, #2B1 and #2B2 antibodies (100 ng/mL) with 1×10⁵ CHO cells stably expressing human FcγRs for 30 min on ice. The cells were then washed, detached, fixed, and analyzed by flow cytometry (FACSCalibur; BD Biosciences).
(§3) The binding of monomeric #2B, #2B1 and #2B2 to human FcγRs was tested by flow cytometry by incubating the mAbs with CHO cells stably expressing human FcγRI, FcγRIIA (H131), FcγRIIA(R131), FcγRIIB, FcγRIIIA(F176), FcγRIIIA(V176), FcγRIIIB(NA1), FcγRIIIB(NA2), and FcγRIIIB(SH), (REF P. Bruhns). As presented in FIG. 9, #2B is binding to hFcγRI and hFcγRIIIA(V176) only, whereas no monomeric binding of #2B1 and #2B2 to all tested hFcγRs was observed. Antibody-antigen immune complex was tested by first incubating the mAb with the antigen and then, incubating the immune complexes formed with CHO cells stably expressing human FcγRs. The immune complexe of #2B is binding to all tested hFcγRs, except hFcγRIIB (FIG. 10). Weak binding is observed for immune complex of #2B1 to hFcγRIIIA(V176) (data not shown), whereas no immune complex binding of #2B2 to any tested hFcγRs (data not shown).

human FcγRIIB = molecular target: T4, human FcγRIIB (human, UniProt P31994 43-310); assay: as above
T4 construct: whole, on cells; also called hFcγRIIB
T4 sequence (looked up): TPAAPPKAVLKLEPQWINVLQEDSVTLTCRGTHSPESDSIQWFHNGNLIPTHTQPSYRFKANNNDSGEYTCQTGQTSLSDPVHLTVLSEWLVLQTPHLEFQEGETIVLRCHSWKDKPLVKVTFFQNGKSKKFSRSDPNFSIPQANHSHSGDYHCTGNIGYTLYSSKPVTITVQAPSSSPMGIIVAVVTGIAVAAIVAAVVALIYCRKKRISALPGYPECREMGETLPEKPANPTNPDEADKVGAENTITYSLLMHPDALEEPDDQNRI
Experimental: as §2, §3

human FcγRIIA (H131) = molecular target: T5, human FcγRIIA (H131) (human, UniProt P12318 34-317); assay: as above
T5 construct: whole, on cells; Allelic variant with His at 131 (mature numbering as printed)
T5 sequence (looked up): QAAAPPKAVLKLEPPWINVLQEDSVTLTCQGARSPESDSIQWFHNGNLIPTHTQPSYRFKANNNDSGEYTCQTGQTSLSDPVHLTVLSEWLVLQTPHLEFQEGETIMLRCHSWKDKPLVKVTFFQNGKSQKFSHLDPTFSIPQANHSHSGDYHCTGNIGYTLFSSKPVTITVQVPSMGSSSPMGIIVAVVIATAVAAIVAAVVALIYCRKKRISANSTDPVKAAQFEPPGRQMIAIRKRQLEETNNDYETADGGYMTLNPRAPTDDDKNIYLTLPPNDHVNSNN
Experimental: as §2, §3

human FcγRI [3] = molecular target: T6, human FcγRI (human, UniProt P12314 16-374); assay: as above
T6 construct: whole, on cells; also called hFcγRI
Experimental: as §2, §3

human FcγRIIIB(NA2) = molecular target: T7, human FcγRIIIB(NA2) (human, UniProt O75015 17-200); assay: as above
T7 construct: whole, on cells
Experimental: as §2, §3

human FcγRIIIB(NA1) = molecular target: T8, human FcγRIIIB(NA1) (human, UniProt O75015 17-200); assay: as above
T8 construct: whole, on cells
Experimental: as §2, §3

human FcγRIIIA(V176) [4] = molecular target: T9, human FcγRIIIA(V176) (human, UniProt P08637 17-254); assay: as above
T9 construct: whole, on cells; also called hFcγRIIIA(V176)
Experimental: as §2, §3

human FcγRIIIB(SH) = molecular target: T10, human FcγRIIIB(SH) (human, UniProt O75015 17-200); assay: as above
T10 construct: whole, on cells
Experimental: as §2, §3

human FcγRIIA(R131) = molecular target: T11, human FcγRIIA(R131) (human, UniProt P12318 34-317); assay: as above
T11 construct: whole, on cells; Allelic variant with Arg at 131 (so in the source)
T11 sequence (looked up): T5 sequence (looked up) with H134R
Experimental: as §2, §3

[5] = molecular target: T1, recombinant human sPLA2-GIB (mature …); assay: competitive ELISA: constant antibody premixed with dilutions of soluble antigen, free antibody caught on antigen-coated plate
Experimental: (§4) Binding affinities of the humanized antibodies to pro-sPLA2-GIB and sPLA2-GIB were measured by plate-based competition immunoassay. For the competition ELISA, briefly, constant amounts of antibody at different levels were premixed with serial dilutions of antigen protein, human sPLA2-GIB or pro-sPLA2-GIB, ranging from 0 to 10 μg/ml, and incubated for two hours at room temperature to reach pseudo-binding equilibrium between the antibody and antigen. These solutions were then transferred to 96-well sPLA2-GIB or pro-sPLA2-GIB pre-coated plates to allow the free-antibody in the mixtures to bind to plate-coated sPLA2-GIB or pro-sPLA2-GIB. The plates were typically coated with 30 to 100 ng of human sPLA2-GIB or pro-sPLA2-GIB protein in PBS solution overnight at 4° C. followed by BSA nonspecific blocking. After washing off excess antibody in solution, plate-bound antibodies were detected with an HRP-conjugated goat anti-mouse IgG or IgA polyclonal antibody reagent and developed using colorimetric substrate. The dependency of the signals on the concentrations of antigen in solution was analyzed with a 4-parameter fit analysis using Prism™ software (Graph Pad) and reported as IC50.
(§5) The respective binding affinities of the humanized antibodies to human pro-sPLA2-GIB and human sPLA2-GIB were measured by plate-based competition immunoassay. Briefly, constant amounts of antibody at different levels were premixed with serial dilutions of antigen proteins to reach pseudo-binding equilibrium between the antibody and antigen. These solutions were then transferred to antigen pre-coated plates to allow the free-antibody in the mixtures to bind to plate-coated sPLA2-GIB or pro-sPLA2-GIB. Plate-bound antibodies were detected with an HRP-conjugated polyclonal antibody. Data were fitted with a 4PL logistic non-linear regression model and the relative IC50 values were estimated from the model (Table 4).

[6] = molecular target: T2, recombinant human pro-sPLA2-GIB; assay: as above
Experimental: as §4, §5

human FcγRI [7] = molecular target: T6, human FcγRI; assay: flow cytometry, monomeric IgG (100 ng/mL) on CHO cells expressing the receptor
Experimental: as §2, §3

human FcγRIIIA(V176) [8] = molecular target: T9, human FcγRIIIA(V176); assay: as above
Experimental: as §2, §3

[9] = molecular target: T1, recombinant human sPLA2-GIB (mature …); assay: cell-based or functional assay

T6 sequence (P12314 16-374): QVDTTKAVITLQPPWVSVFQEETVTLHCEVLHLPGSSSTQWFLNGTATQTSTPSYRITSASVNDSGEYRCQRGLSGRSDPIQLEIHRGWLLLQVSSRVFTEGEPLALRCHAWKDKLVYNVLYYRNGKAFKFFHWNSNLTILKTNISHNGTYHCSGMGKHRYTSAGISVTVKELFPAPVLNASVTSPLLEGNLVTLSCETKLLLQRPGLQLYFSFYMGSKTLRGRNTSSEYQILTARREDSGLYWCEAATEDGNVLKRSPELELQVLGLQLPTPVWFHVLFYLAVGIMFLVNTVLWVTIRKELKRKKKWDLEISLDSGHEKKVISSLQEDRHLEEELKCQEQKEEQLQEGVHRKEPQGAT
T9 sequence (P08637 17-254 F176V limits assumed): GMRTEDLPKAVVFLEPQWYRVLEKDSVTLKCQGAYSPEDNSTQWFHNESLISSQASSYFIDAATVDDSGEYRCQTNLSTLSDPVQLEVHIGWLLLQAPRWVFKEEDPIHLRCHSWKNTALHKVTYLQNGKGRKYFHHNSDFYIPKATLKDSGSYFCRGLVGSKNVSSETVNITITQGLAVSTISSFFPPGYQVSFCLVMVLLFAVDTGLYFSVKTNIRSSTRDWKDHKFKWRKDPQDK
T2 sequence (P04054 16-148): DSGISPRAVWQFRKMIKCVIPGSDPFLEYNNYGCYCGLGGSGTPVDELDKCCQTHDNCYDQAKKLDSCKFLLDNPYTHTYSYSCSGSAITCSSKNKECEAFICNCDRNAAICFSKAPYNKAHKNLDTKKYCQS
T1 sequence (P04054 23-148): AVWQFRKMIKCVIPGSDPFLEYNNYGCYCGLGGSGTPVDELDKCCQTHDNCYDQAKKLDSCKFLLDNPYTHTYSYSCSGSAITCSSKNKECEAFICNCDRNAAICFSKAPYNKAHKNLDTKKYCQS
T8 sequence (O75015 other isoform, or with tags, fused parts or gaps): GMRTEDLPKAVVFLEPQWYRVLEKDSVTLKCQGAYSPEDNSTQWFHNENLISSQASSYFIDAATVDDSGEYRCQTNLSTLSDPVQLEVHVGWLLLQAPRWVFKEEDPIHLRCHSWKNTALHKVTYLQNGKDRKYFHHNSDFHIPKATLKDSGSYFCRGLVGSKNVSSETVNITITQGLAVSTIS
T3 sequence (P08637 17-254): as the sequence (P08637 17-254 F176V limits assumed) above, with V160F counted along it
T10 sequence (O75015 17-200 N65S/A78D): as the sequence (O75015 other isoform, or with tags, fused parts or gaps) above, with R20S, N49S, A62D, D66N, V90I counted along it
T7 sequence (O75015 17-200 N65S): as the sequence (O75015 other isoform, or with tags, fused parts or gaps) above, with R20S, N49S, D66N, V90I counted along it

Binder	Kd [1] [nM]	koff [1] [s⁻¹]	kon [1] [M⁻¹ s⁻¹]	t½ [1] [min]	Kd [2] [nM]	koff [2] [s⁻¹]	kon [2] [M⁻¹ s⁻¹]	t½ [2] [min]	binding result (human FcγRIIIA(F176))	binding result (human FcγRIIB)	binding result (human FcγRIIA (H131))	binding result (human FcγRI [3])	binding result (human FcγRIIIB(NA2))	binding result (human FcγRIIIB(NA1))	binding result (human FcγRIIIA(V176) [4])	binding result (human FcγRIIIB(SH))	binding result (human FcγRIIA(R131))	further results
B1	0.729	0.00203	2.78e+06	5.7	853	0.155	181000	0.074	no binding (tested: 100 ng/mL)	no binding (tested: 100 ng/mL)	no binding (tested: 100 ng/mL)	no binding (tested: 100 ng/mL)	no binding (tested: 100 ng/mL)	no binding (tested: 100 ng/mL)	no binding (tested: 100 ng/mL)	no binding (tested: 100 ng/mL)	no binding (tested: 100 ng/mL)	
B2	0.786	0.00225	2.89e+06	5.1	785	0.142	176000	0.08										IC50 [5]: 2.3 nM; IC50 [6]: 341 nM; binding result (human FcγRI [7]): binds; binding result (human FcγRIIIA(V176) [8]): binds; EC50 for the restoration of the sPLA2-IB effect on IL-7 induced phosphoSTAT5 nuclear translocation in human CD4 T cells (75 nM sPLA2-GIB) [9]: 3.7 ng/mL
B3	0.796	0.00247	3.02e+06	4.7	880	0.146	164000	0.079	no binding (tested: 100 ng/mL)	no binding (tested: 100 ng/mL)	no binding (tested: 100 ng/mL)	no binding (tested: 100 ng/mL)	no binding (tested: 100 ng/mL)	no binding (tested: 100 ng/mL)	no binding (tested: 100 ng/mL)	no binding (tested: 100 ng/mL)	no binding (tested: 100 ng/mL)	
